From patent publication US20220193237A1 (Bristol-Myers Squibb, published 2022)

T1: monomeric human CTLA-4 (human, UniProt P16410 36-161, limits assumed)
T1 construct: Soluble monomeric analyte in SPR; also called huCTLA-4
T1 sequence: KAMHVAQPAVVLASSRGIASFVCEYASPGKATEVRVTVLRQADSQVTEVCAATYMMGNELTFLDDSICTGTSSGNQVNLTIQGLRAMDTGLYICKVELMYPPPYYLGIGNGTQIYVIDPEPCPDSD


Key:
[1] = target: T2, human CTLA-4 on 58 α-β-CTLA-4/CD3 ζ cells (human; mouse (mCD3ζ)); assay: flow cytometry, non-fucosylated IgG1 on 58αβ-CTLA4/mCD3ζ cells, pH 7.2
T2 construct: also called 58αβ-hCTLA4/mCD3ζ cells; 58αβ-CTLA4/mCD3ζ cells
Method: (§1) Antibodies were titrated from 100 μg/mL at a 1:4 dilution across 12 points in pH-specific buffers and incubated for 30-60 minutes. Buffers contained HBSS, 2% FBS^HI, 0.02% sodium azide, 2 mM EDTA, and sodium phosphate buffer (pH 5.4). Sodium phosphate buffer was added until desired pH was reached (7.2, 6.7, 6.2). Approximately 3e5 cells/well were tested for each cell line. […] Detection was done with a monovalent anti-hKappa secondary nanobody conjugated to Alexa647 and used at a dilution of 1:2000. Cells were fixed with BD Fix Solution I for 30 minutes prior to resuspension in pH-specific buffers and reading on the cytometer (BD Fortessa).

[2] = target: T2, human CTLA-4 on 58 α-β-CTLA-4/CD3 ζ …; assay: flow cytometry, non-fucosylated IgG1 on 58αβ-CTLA4/mCD3ζ cells, pH 6.7
Method: as §1

[3] = target: T2, human CTLA-4 on 58 α-β-CTLA-4/CD3 ζ …; assay: flow cytometry, non-fucosylated IgG1 on 58αβ-CTLA4/mCD3ζ cells, pH 6.2
Method: as §1

[4] = target: T1, monomeric human CTLA-4; assay: SPR, captured Fab, pH 6.0
Method: (§2) Binding of selected variants to human CTLA-4 was determined essentially as described in Example 3. […] Nomenclature and sequences for these antibodies is provided at Tables 6 and 7, and in the sequence listing as summarized at Table 8.
(§3) Monomeric human CTLA-4 was flowed as analyte with up to 2 μM top concentration. Between cycles, the capture surface was regenerated with 75 mM phosphoric acid. Experiments were run on a BIACORE® T200 instrument at 37° C. Running buffers were HEPES buffered saline for pH 7.4 experiments and Bis-Tris buffered saline for lower pH experiments. […] Double referenced sensorgrams were fitted to a 1:1 Langmuir binding model with mass transport to determine equilibrium dissociation constants (KD), as well as association (kₐ) and dissociation (kd) rate constants where appropriate.

[5] = target: T1, monomeric human CTLA-4; assay: SPR, captured Fab, pH 6.0 vs 7.4
Method: as §2, §3

[6] = target: T1, monomeric human CTLA-4; assay: SPR, captured Fab, pH 7.4
Method: as §2, §3

Binder | Cmax (MFI) [1] | EC50 [1] | Cmax (MFI) [2] | EC50 [2] | Cmax (MFI) [3] | EC50 [3] | Kd [4] | kon [4] | t1/2 [4] | KD 7.4/6 (APBP) [5] | Kd [6] | ka 6/7.4 [5] | t1/2 6/7.4 [5] | kon [6] | t1/2 [6]
ipi.86 Fab (Fab, V domains shown, Tested as monovalent Fab) VH: QVQLVESGGGVVQPGRSLRLSCAASGFTFSHYTMHWVRQAPGKGLEWVTFISYDGNNKYYADSVKGRFTISRDNSKNTLYLQMNSLRAEDTAIYYCARHGWLGPFDYWGQGTLVTVSS VL: not shown | – | – | – | – | – | – | 12 nM | 1.6e+06 M⁻¹ s⁻¹ | 36 s | 15 | 180 nM | – | – | – | –
ipi.7 Fab (Fab, V domains shown, Tested as monovalent Fab) VH: QVQLVESGGGVVQPGRSLRLSCAASGFTFSSYHMHWVRQAPGKGLEWVTFISYDGNHKYYADSVKGRFTISRDNSKNTLYLQMNSLRAEDTAIYYCARTGWLGPFDYWGQGTLVTVSS VL: not shown | – | – | – | – | – | – | 1.7 nM | 1.2e+06 M⁻¹ s⁻¹ | 347 s | 0.8 | 1.5 nM | 1.1 | 0.7 | 1e+06 M⁻¹ s⁻¹ | 462 s
ipi.20 Fab (Fab, V domains shown, Tested as monovalent Fab) VH: QVQLVESGGGVVQPGRSLRLSCAASGFTFSSYTMHWVRQAPGKGLEWVTFISYDGNNKYYADSVKGRFTISRDNSKNTLYLQMNSLRAEDTAIYYCARTGWLGPFDYWGQGTLVTVSS VL: not shown | – | – | – | – | – | – | 32 nM | 1.6e+06 M⁻¹ s⁻¹ | 14 s | 2.6 | 84 nM | 2 | 1.3 | 790000 M⁻¹ s⁻¹ | 11 s
ipi.69 Fab (Fab, V domains shown, Tested as monovalent Fab) VH: QVQLVESGGGVVQPGRSLRLSCAASGFTFSHYTMHWVRQAPGKGLEWVTFISYDGHNKYYADSVKGRFTISRDNSKNTLYLQMNSLRAEDTAIYYCARTGWLGPFDYWGQGTLVTVSS VL: not shown | – | – | – | – | – | – | 4.4 nM | 1.1e+06 M⁻¹ s⁻¹ | 144 s | 6.3 | 28 nM | 1.3 | 4.7 | 820000 M⁻¹ s⁻¹ | 30 s
ipi.66 Fab (Fab, V domains shown, Tested as monovalent Fab) VH: QVQLVESGGGVVQPGRSLRLSCAASGFTFSSYTMHWVRQAPGKGLEWVTFISYDGHNKYYADSVKGRFTISRDNSKNTLYLQMNSLRAEDTAIYYCARTGWLGPFDYWGQGTLVTVSS VL: not shown | – | – | – | – | – | – | 3.5 nM | 1.2e+06 M⁻¹ s⁻¹ | 161 s | 7.6 | 26 nM | 1.8 | 4.3 | 700000 M⁻¹ s⁻¹ | 36 s
ipi.59 Fab (Fab, V domains shown, Tested as monovalent Fab) VH: QVQLVESGGGVVQPGRSLRLSCAASGFTFSSYTMHWVRQAPGKGLEWVTFISYDGHNKYYADSVKGRFTISRDNSKNTLYLQMNSLRAEDTAIYYCARTGWLGPFDYWGQGTLVTVSS VL: not shown | – | – | – | – | – | – | 11 nM | 1e+06 M⁻¹ s⁻¹ | 63 s | 1.9 | 21 nM | 1.3 | 1.5 | 810000 M⁻¹ s⁻¹ | 41 s
ipi.71 Fab (Fab, V domains shown, Tested as monovalent Fab) VH: QVQLVESGGGVVQPGRSLRLSCAASGFTFSHYTMHWVRQAPGKGLEWVTFISYDGHNKYYADSVKGRFTISRDNSKNTLYLQMNSLRAEDTAIYYCARTGWLGPFDYWGQGTLVTVSS VL: not shown | – | – | – | – | – | – | 1.6 nM | 1.5e+06 M⁻¹ s⁻¹ | 289 s | 25 | 39 nM | 2 | 12.2 | 740000 M⁻¹ s⁻¹ | 24 s
ipi.84 Fab (Fab, V domains shown, Tested as monovalent Fab) VH: QVQLVESGGGVVQPGRSLRLSCAASGFTFSHYTMHWVRQAPGKGLEWVTFISYDGHNKYYADSVKGRFTISRDNSKNTLYLQMNSLRAEDTAIYYCARHGWLGPFDYWGQGTLVTVSS VL: not shown | – | – | – | – | – | – | 16 nM | 1.3e+06 M⁻¹ s⁻¹ | 35 s | 7.7 | 120 nM | – | – | – | –
ipi.82 Fab (Fab, V domains shown, Tested as monovalent Fab) VH: QVQLVESGGGVVQPGRSLRLSCAASGFTFSHYTMHWVRQAPGKGLEWVTFISYDGNNKYYADSVKGRFTISRDNSKNTLYLQMNSLRAEDTAIYYCARHGWLGPFDYWGQGTLVTVSS VL: not shown | – | – | – | – | – | – | 31 nM | 1.4e+06 M⁻¹ s⁻¹ | 16 s | 4.4 | 130 nM | – | – | – | –

Results, then the binder that gave them:

Cmax (MFI) [1] | EC50 [1] | Cmax (MFI) [2] | EC50 [2] | Cmax (MFI) [3] | EC50 [3] | Kd [4] | kon [4] | t1/2 [4] | KD 7.4/6 (APBP) [5] | Kd [6] | ka 6/7.4 [5] | t1/2 6/7.4 [5] | kon [6] | t1/2 [6] | Binder
62000 MFI | 11.5 nM | 80200 MFI | 4.37 nM | 88000 MFI | 3.15 nM | – | – | – | – | – | – | – | – | – | ipi.106, non-fucosylated IgG1 (antibody, V domains shown, non-fucosylated N-linked glycan, Non-fucosylated full-length human IgG1; also called Ipi.106 IgG1-NF) VH: QVQLVESGGGVVQPGRSLRLSCAASGFTFSHYTMHWVRQAPGKGLEWVTFISYDGHNKYYADSVKGRFTISRDNSKNTLYLQMNSLRAEDTAIYYCARHGWLGPFDYWGQGTLVTVSS VL: EIVLTQSPGTLSLSPGERATLSCRASQEVGESELAWYQQKPGQAPRLLIYGAFSRATGIPDRFSGSGSGTDFTLTISRLEPEDFAVYYCQQYGSSPWTFGQGTKVEIKR
– | – | – | – | – | – | 17 nM | 1.8e+06 M⁻¹ s⁻¹ | 22 s | > 59 | > 1000 nM | – | – | – | – | ipi.92 Fab (Fab, V domains shown, Tested as monovalent Fab) VH: QVQLVESGGGVVQPGRSLRLSCAASGFTFSHYTMHWVRQAPGKGLEWVTFISYDGHNKYYADSVKGRFTISRDNSKNTLYLQMNSLRAEDTAIYYCARHGWLGPFDYWGQGTLVTVSS VL: EIVLTQSPGTLSLSPGERATLSCRASQEVGDSELAWYQQKPGQAPRLLIYGAFSRATGIPDRFSGSGSGTDFTLTISRLEPEDFAVYYCQQYGSSPWTFGQGTKVEIKR
– | – | – | – | – | – | 6.5 nM | 2e+06 M⁻¹ s⁻¹ | 53 s | 27 | 170 nM | – | – | – | – | ipi.88 Fab (Fab, V domains shown, Tested as monovalent Fab) VH: QVQLVESGGGVVQPGRSLRLSCAASGFTFSHYTMHWVRQAPGKGLEWVTFISYDGHNKYYADSVKGRFTISRDNSKNTLYLQMNSLRAEDTAIYYCARHGWLGPFDYWGQGTLVTVSS VL: not shown
– | – | – | – | – | – | 13 nM | 1.7e+06 M⁻¹ s⁻¹ | 32 s | 16 | 210 nM | – | – | – | – | ipi.93 Fab (Fab, V domains shown, Tested as monovalent Fab) VH: QVQLVESGGGVVQPGRSLRLSCAASGFTFSSYTMHWVRQAPGKGLEWVTFISYDGNNKYYADSVKGRFTISRDNSKNTLYLQMNSLRAEDTAIYYCARTGWLGPFDYWGQGTLVTVSS VL: EIVLTQSPGTLSLSPGERATLSCRASQEVGDSELAWYQQKPGQAPRLLIYGAFSRATGIPDRFSGSGSGTDFTLTISRLEPEDFAVYYCQQYGSSPWTFGQGTKVEIKR
– | – | – | – | – | – | 5.2 nM | 1.9e+06 M⁻¹ s⁻¹ | 70 s | 52 | 270 nM | – | – | – | – | ipi.94 Fab (Fab, V domains shown, Tested as monovalent Fab) VH: QVQLVESGGGVVQPGRSLRLSCAASGFTFSHYTMHWVRQAPGKGLEWVTFISYDGNNKYYADSVKGRFTISRDNSKNTLYLQMNSLRAEDTAIYYCARTGWLGPFDYWGQGTLVTVSS VL: EIVLTQSPGTLSLSPGERATLSCRASQEVGDSELAWYQQKPGQAPRLLIYGAFSRATGIPDRFSGSGSGTDFTLTISRLEPEDFAVYYCQQYGSSPWTFGQGTKVEIKR
– | – | – | – | – | – | 2.8 nM | 1.9e+06 M⁻¹ s⁻¹ | 126 s | 99 | 280 nM | – | – | – | – | ipi.95 Fab (Fab, V domains shown, Tested as monovalent Fab) VH: QVQLVESGGGVVQPGRSLRLSCAASGFTFSHYTMHWVRQAPGKGLEWVTFISYDGHNKYYADSVKGRFTISRDNSKNTLYLQMNSLRAEDTAIYYCARTGWLGPFDYWGQGTLVTVSS VL: EIVLTQSPGTLSLSPGERATLSCRASQEVGDSELAWYQQKPGQAPRLLIYGAFSRATGIPDRFSGSGSGTDFTLTISRLEPEDFAVYYCQQYGSSPWTFGQGTKVEIKR
